Reference: publication PMC7542595
Like-named read-outs stand apart in the source and are kept apart here.

B1: human 14-3-3σ (natural protein)
chain: MERASLIQKAKLAEQAERYEDMAAFMKGAVEKGEELSCEERNLLSVAYKNVVGGQRAAWRVLSSIEQKSNEEGSEEKGPEVREYREKVETELQGVCDTVLGLLDSHLIKEAGDAESRVFYLKMKGDYYRYLAEVATGDDKKRIIDSARSAYQEAMDISKKEMPPTNPIRLGLALNFSVFHYEIANSPEEAISLAKTTFDEAMADLHTLSEDSYKDSTLIMQLLRDNLTLWTADNAGEEGGEAPQEPQS
B2: human 14-3-3τ (natural protein)
chain: MEKTELIQKAKLAEQAERYDDMATCMKAVTEQGAELSNEERNLLSVAYKNVVGGRRSAWRVISSIEQKTDTSDKKLQLIKDYREKVESELRSICTTVLELLDKYLIANATNPESKVFYLKMKGDYFRYLAEVACGDDRKQTIDNSQGAYQEAFDISKKEMQPTHPIRLGLALNFSVFYYEILNNPELACTLAKTAFDEAIAELDTLNEDSYKDSTLIMQLLRDNLTLWTSDSAGEECDAAEGAEN

What was measured:
Assay in all cases: fluorescence polarisation
[1] = target: ERα-ctp (1), N-fluorescein-labeled C-terminal hexaphosphopeptide of ERα
[2] = target: GpIBα-ctp (3), N-fluorescein-labeled C-terminal hexaphosphopeptide of GpIBα
[3] = target: Task3-ctp (2), N-fluorescein-labeled C-terminal hexaphosphopeptide of Task3
[4] = target: GpIBα-ctp (3), N-fluorescein-labeled C-terminal hexaphosphopeptide of GpIBα; remark: listed apart in the source
[5] = target: Task3-ctp (2), N-fluorescein-labeled C-terminal hexaphosphopeptide of Task3; remark: listed apart in the source
[6] = target: ERα-ctp (1), N-fluorescein-labeled C-terminal hexaphosphopeptide of ERα; remark: listed apart in the source

Row | Molecule | Kd [1] [nM] | Kd [2] [µM] | Kd [3] [nM] | Kd [4] [nM] | Kd [5] [nM] | Kd [6] [nM]
1 | human 14-3-3ζ (from UniProt P63104 1-245) (natural protein) | 1500 | 20 | 1300 |  |  | 
2 | human 14-3-3ε (from UniProt P62258 1-255) (natural protein) | 3400 | 28 | 6000 | 1700 | 160 | 
3 | human 14-3-3β (from UniProt P31946 1-246) (natural protein) | 720 | 18 | 2400 | 870 |  | 
4 | B1 | 6600 | 47 | 2100 |  |  | 
5 | B2 | 1100 | 20 | 2200 |  |  | 130
